The results in this text go back to publication PMC8588329.

In this test the target is recombinant Plasmodium knowlesi lactate dehydrogenase (Plasmodium knowlesi). The test can be described thus: SEC; Superdex 200 10/300 GL, 50 mM phosphate buffer pH 7.4, 250 mM NaCl, 0.50 mL/min; elution volume 13 mL set against a calibration curve of protein standards. For orientation: Size exclusion chromatography separates by hydrodynamic size, large species first.

By stoichiometry N is commonly meant the number of molecules, sites or subunits per partner or assembly. As for “recombinant Plasmodium knowlesi lactate dehydrogenase (enzyme)”, the stoichiometry N came out at 4.
